Key:
CD28 on human cells = target: T1, CD28 on human cells (human, UniProt P10747 19-220); test: inferred from inhibition of cell death by anti-CD28 blocking antibody on JKCD28high cells
T1 construct: whole, on cells; also called CD28 receptor
Description: FIG. 14: Effect of the pFasL and CD80-pFasL chimeras on the JKCD28low, JKCD28high and JKCD28delta cell lines. Panel A: membrane expression of Fas and CD28 on the three cell lines. The cells were stained with the indicated antibodies, or with an isotype-matched negative control antibody (shaded histograms) then analysed by flow cytometry. Panel B: the apoptotic activity of the pFasL and CD80-pFasL chimeras was tested against the three cell lines (JKCD28 low: empty triangles; JKCD28high: filled triangles; JKCD28delta: squares) at a range of concentrations, measured in the FasL ELISA. Cell death was estimated by the MTT viability assay. Mean and sd from three distinct experiments. Panel C: the pFasL and CD80-pFasL chimeras were used at a non-saturating concentration that triggers a suboptimal cell death. The JKCD28low and JKCD28high cell lines were pre-incubated without (no antibody) or with an isotype-matched control antibody at 10 μg/mL or with the CD28.2 clone of anti-CD28 blocking antibody at 10, 3 or 1 μg/mL. Cell death was measured using the MTT cell viability assay. Mean and sd from three distinct experiments.
To analyse this possibility, the inventors conducted experiments where CD28 was blocked using a neutralising antibody. […]

[1] = target: T2, Fas (CD95/APO-1) on Jurkat cells (human, UniProt P25445 26-335); test: cell-based or functional assay
T2 sequence (looked up): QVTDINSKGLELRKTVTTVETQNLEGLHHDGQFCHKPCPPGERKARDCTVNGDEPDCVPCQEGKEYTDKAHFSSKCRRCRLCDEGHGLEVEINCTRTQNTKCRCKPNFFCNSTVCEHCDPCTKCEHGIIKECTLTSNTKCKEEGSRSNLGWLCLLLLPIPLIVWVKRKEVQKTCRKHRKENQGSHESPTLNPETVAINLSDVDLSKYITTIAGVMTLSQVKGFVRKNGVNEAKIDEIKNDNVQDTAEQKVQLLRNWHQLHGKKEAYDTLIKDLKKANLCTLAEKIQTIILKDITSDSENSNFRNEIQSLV

B1: CD80-pFasL (other)
chain: VIHVTKEVKEVATLSCGHNVSVEELAQTRIYWQKEKKMVLTMMSGDMNIWPEYKNRTIFDITNNLSIVILALRPSDEGTYECVVLKYEKDAFKREHLAEVTLSVKADFPTPSISDFEIPTSNIRRIICSTSGGFPEPHLSWLENGEELNAINTTVSQDPETELYAVSSKLDFNMTTNHSFMCLIKYGHLRVNQTFNWNTTKQEHFPSSIPDSQTKVFPQDKVILVGSDITFCCVSQEKVLSALIGHTNCPLIHLDGENVAIKIRNISVSASSGTNVVFTTEDNIFGTVISRALQKELAELRESTSQMHTASSLEKQIGHPSPPPEKKELRKVAHLTGKSNSRSMPLEWEDTYGIVLLSGVKYKKGGLVINETGLYFVYSKVYFRGQSCNNLPLSHKVYMRNSKYPQDLVMMEGKMMSYCTTGQMWARSSYLGAVFNLTSADHLYVNVSELSLVNFEESQTFFGLYKL
notes: Polymeric, produced in HEK 293T cells; also called CD80IgFasL; CD80-IgFasL polymeric chimera
binding result (CD28 on human cells): binds
C50 against pFasL, JKCD28delta cell line [1]: 10 fold increase against pFasL
C50 against pFasL, JKCD28high cell line [1]: 2.5 fold decrease against pFasL
C50 against pFasL, JKCD28low cell line [1]: 17 fold decrease against pFasL

Reference: US20150044237A1 (CENTRE NATIONAL DE LA RECHERCHE SCIENTIFIQUE, published 2015)
